Assay results taken from patent publication US12419977B2, “Radiopharmaceuticals” (AdvanCell Isotopes Pty Limited, priority 2022, dated 2025).

System: PC3-PIP (PSMA expressing) and PC3 (PSMA deficient) tumours
Set-up: species or system male BALB/c nude mice
Conditions: mouse, in vivo
Protocol: In vivo biodistribution studies of [^212Pb]Pb-ADVC001 were performed using an animal model of prostate cancer. Tumour xenographs were grown on opposite flanks of male BALB/c nude mice after inoculation with 10^6 PC3-PIP (PSMA expressing) and PC3 (PSMA deficient) cell lines. In this model, the PC3 tumours act as a control to assess the specificity of [^212Pb]Pb-ADVC001 uptake within PSMA expressing tumours. Once the tumours had reached 5-10 mm in size, 3 groups (representing 3 different time points) of 5 mice were injected with 300-325 kBq of [^212Pb]Pb-ADVC001 via the lateral tail vein. At 1, 4 and 24 hours after injection, mice were euthanised and multiple organs collected and weighed. Radioactivity in each organ was counted using a well-type gamma counter (counting window 218-258 keV). Activity levels of [^212Pb]Pb-ADVC001 expressed as percent injected dose/gram of tissue (% ID/g) measured from each organ over the 3 time points are given in Table 1 with the biodistribution plots presented in FIG. 1A. Activity accumulation over time of [^212Pb]Pb-ADVC001 for major organs (kidney, liver and bone marrow) along with tumour uptake is provided in FIG. 3. […] The biodistribution of [^212Pb]Pb-PSMA-I&T expressed as percent injected dose/gram of tissue (% ID/g) measured from each organ over the 3 time points is presented in FIG. 1B. […]

NC(=O)CN1CCN(CC(N)=O)CCN(C(CCC(=O)N[C@H](Cc2ccc(O)c(I)c2)C(=O)N[C@H](Cc2ccccc2)C(=O)N[C@H](CCCCNC(=O)CCCCCCC(=O)NCCCC[C@H](NC(=O)N[C@@H](CCC(=O)O)C(=O)O)C(=O)O)C(=O)O)C(=O)O)CCN(CC(N)=O)CC1 (stereo partly shown) [[^212Pb]Pb-ADVC001, metal not drawn]
tumour to kidney activity ratio: significantly higher
